From patent US20240317865A1, “ANTIBODIES AGAINST INTEGRIN ALPHA 11 BETA 1” (MOMENTA PHARMACEUTICALS, INC., priority 2020, published 2024)

T1: α11β1 I Domain (Homo sapiens, UniProt Q9UKX5)
T1 sequence (Q9UKX5 164-345 limits assumed): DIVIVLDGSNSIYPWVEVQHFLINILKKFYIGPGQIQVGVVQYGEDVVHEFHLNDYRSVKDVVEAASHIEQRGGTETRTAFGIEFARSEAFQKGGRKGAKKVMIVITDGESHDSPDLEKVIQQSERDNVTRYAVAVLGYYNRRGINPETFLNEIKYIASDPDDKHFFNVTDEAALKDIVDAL


Key:
[1] = system: CHO-K1 human α11-mediated rat tail type I collagen gel contraction; test: Collagen gel contraction assay; format: cell-based; conditions: compared to untreated condition
Procedure: 24-well plates were blocked with 2% BSA in PBS overnight at 37° C. The following day, the plates were washed 3 times with PBS before being used in the assay. Human CHO cell lines expressing α11 were harvested and resuspended at 1.25×10^6 in ExpiCHO Expression Medium (Gibco™ Cat #A2910002). The collagen gel solution was prepared by diluting 3 mg/mL stock collagen type I (Gibco™ Collagen I Rat Protein, Tail Cat #A1048301) to 1 mg/mL in the media containing the CHO cells. Sodium hydroxide was added to the solution to neutralize the pH and 400 μL of the collagen solution was added to each well of the 24-well plates. For the wells where the antibodies were included in the collagen gel solution, CHO cells were prepared at 2.5×10^6 and the antibodies were prepared at 2× final concentration in ExpiCHO media. The cells and antibodies were then combined 1:1 before the addition of the stock collagen type 1. The gels were allowed to polymerize for 60 minutes at 37° C. Antibodies were added to the ExpiCHO media, which was then layered on top of the polymerized gel (400 μL/well). The gels were incubated for 6 days at 37° C. before gel contraction was quantified. Images of each well were analyzed using Image J and gel contraction was determined as a percentage of the initial gel area.
Selected exemplary antibodies were tested for the ability to inhibit cell-mediated 3D gel contraction because this ability is directly linked to the functionality of the exemplary antibodies.

[2] = system: human Precision-Cut Kidney Slices (PCKS); test: Precision-Cut Kidney Slices (PCKS); format: cell-based; conditions: 72- and 96-hour time points at each dose tested (1, 10 and 50 μg/mL)
Procedure: PCKS were prepared from explanted fibrotic human kidney tissue and rested for 24 hours to allow the post-slicing stress period to elapse before experiments began. PCKS were cultured with TGF-β1 (3 ng/mL) and PDGFββ (50 ng/mL) in the presence or absence of Alk5i (10 μM, positive control), test anti-α11β1 antibodies over three doses (1, 10 and 50 μg/mL) or in the presence of IgG control antibodies at a single high dose. PCKS culture media was harvested every 24 hours for a total of 3 time points. Levels of Collagen type I α1 (col1a1) in the tissue culture supernatants were quantified using R&D Duoset ELISA kits. Statistics were performed using Two-way ANOVA followed by Dunnett's multiple comparisons test.
As described in the methods above, PCKS were prepared from explanted fibrotic human kidney tissue and rested for 24 hours to allow the post-slicing stress period to elapse before experiments began. PCKS were cultured with TGF-β1 (3 ng/ml) and PDGFββ (50 ng/mL) in the presence or absence of Alk5i (10 μM, positive control), test anti-α11β1 antibodies over three doses (1, 10 and 50 μg/mL) or in the presence of IgG control antibodies at a single high dose. PCKS culture media was harvested every 24 hours for a total of 3 time points. Levels of Collagen type I α1 (col1a1) in the tissue culture supernatants were quantified using R&D Duoset ELISA kits. […]

[3] = target: T1, α11β1 I Domain; test: SPR binding to α11β1 I Domain; conditions: in words
Procedure: (§1) The affinity of antibodies for human α11β1 was measured by surface plasmon resonance assay (SPR). Affinity was measured at pH 7.6 and 25° C. with a Biacore T200 instrument. Anti-HIS antibody was immobilized on the SPR sensor surface using EDC/NHS covalent attachment. HIS-tagged human α11β1 was captured on the sensor surface and a single-cycle kinetics assay was used. Increasing concentrations of test antibody were injected in series over the sensor-bound α11β1. Dissociation was monitored for 1000 seconds. A sensor surface with only anti-HIS antibody and a series of blank injections were used to double-reference subtract the data. A 1:1 Langmuir model was fit to the data to estimate the kinetic association and dissociation constants. The affinity (equilibrium dissociation constant) of the interaction was calculated by dividing the kinetic dissociation constant by the kinetic association constant. Between injection cycles α11β1 and bound antibody were removed with an injection of 10 mM glycine at pH 1.5.
(§2) The binding affinity of antibodies for the α11β1 Headpiece and α11β1 I Domain as measured by SPR is shown in FIG. 10A and FIG. 10B, respectively.

[4] = system: α11β1 Headpiece; test: SPR binding to α11β1 Headpiece; parameters: species or system human; conditions: in words
Procedure: as §1, §2

[5] = system: α1β1, α2β1 and/or α10β1; test: Counter-screen against other collagen receptors (off target); format: binding, human
Procedure: Wistar rats were immunized with recombinant human α11β1 protein. An enzyme-linked immunosorbent assay (ELISA) was used to test an immune response against target human and mouse proteins. Subsequently, cell fusion (by electro fusion) was performed with animals that produced a good immune response. All fused cells were plated in a 96-well plate and supernatants were screened by ELISA against soluble human and mouse α11β1. Positive clones were counter-screened against human α1β1, α2β1 and α10β1. […] Purified antibodies were then generated from the selected clones and heavy chain and light chain variable domain sequences were obtained from each purified antibody.
10 mice from 5 different strains were immunized with an appropriate mixture of human α11β1, mouse α11β1 and tolerance breaking protein. Plasma titers were evaluated by ELISA against a mixture of human and mouse α11β1. Popliteal, inguinal, and iliac lymph nodes were collected. ELISA-positive anti-human/mouse α11β1 hybridomas were expanded and subjected to a secondary screen against human and mouse α11β1, control HIS protein, and a counter-screen was performed against human […], α2β1 and α10β1. Supernatant IgG concentration was sufficient for functional screening. […]

[6] = target: T1, α11β1 I Domain; test: ELISA binding to in-house generated α11β1 I domain; parameters: An in-house generated I domain of α11β1 was used; made in house; conditions: in words
Procedure: 0.25 μg/mL of target antigen (recombinant human or mouse α11β1) was plated in a 96-well plate over night at 4° C. Plates were washed (PBS with 0.1% Tween-20), blocked (PBS with 2% BSA and 0.05% Tween-20) for 1 hour at room temperature and incubated with a range of antibody concentrations for 1 hour at room temperature. Subsequently, plates were washed and incubated with biotinylated anti-rabbit/mouse/human IgG in a 1:1000 dilution buffer and incubated for 1 hour at room temperature. After washing the plates, Streptavidin HRP was added at 1:200 in dilution buffer and incubated for 1 hour at room temperature. Ultra TMB ELISA substrate solution was added and the plates incubated for 5 minutes on a plate shaker. The reaction was stopped by adding stop solution to each well and plates were read at 450 nm.
Data was also collected to determine whether antibodies of interest bind to the I domain of α11β1. An in-house generated I domain of α11β1 was used. […] Mouse antibodies 10-F23, 10-L15, 7-O8, 6-A12, 9-G05 and 9-E16 and rabbit antibodies 7-H12 and 2-D3 were also tested for binding against the in-house generated α11β1 I domain. FIGS. 3A and 3B show graphs illustrating binding data from exemplary mAbs.

| Molecule | Inhibition of CHO-hu α11-mediated collagen gel contraction [1] | Inhibition of col1a1 secretion [2] | Binding to α11β1 I domain (SPR) [3] | Binding to α11β1 headpiece domain (SPR) [4] | Cross-reactivity with other collagen receptors [5] | Binding to the I domain of α11β1 [6] |
| --- | --- | --- | --- | --- | --- | --- |
| 1994_01_C07: fully human anti-α11β1 mAb from phage display; HCDR3 SEQ ID NO: 267, LCDR3 SEQ ID NO: 271 (antibody, V domains shown) VH: QVQLVQSGAEVKKPGASVKVSCKASGYTFTSYGISWVRQAPGQGLEWMGWISAYNGNTNYAQKLQGRVTMTTDTSTSTAYMELRSLRSDDTAAYYCARVTGITGTTIDPWGQGTMVTVSS VL: DIQMTQSPSSLSASVGDRVTITCRASQSISSYLNWYQQKPGKAPKLLIYDASSLESGVPSRFSGSGSGTEFTLTISSLQPDDFAVYYCQQYNNWPQTFGQGTKVEIK | inhibited | significant inhibition of col1a1 secretion | do not bind | do not bind |  |  |
| 40G10H11: rat anti-α11β1 mAb; VH SEQ ID NO: 157, VL SEQ ID NO: 158 (antibody, V domains shown) VH: MDIRLSLGFLVLFIKGDQCAVQLVESGGGLVQPGRSLKLSCAASRITFTDYYMAWVRQAPTKGLEWVATISSDGGDTFYRDSVKGRFTISRDNAKSTLYLQMVSLRSEDTATYYCSTDRGAQFGYWGQGTLVTVSS VL: MAPVQLLGLLLIWLPAMRCDIQMTQSPSFLSASVGDRVSINCKASQNVHENLNWYQQKLGEAPKRLIYNTNNLQTGIPSRFSGSGSGADYTLTISSLQPEDFATYFCLQHNAFPYTFGPGTKLELK |  |  |  |  | does cross-react with other collagen receptors | not found to be an I-domain binder |
